Assays:
[1] = target: PNPase S1x4;Hfq R681A;Q682A;R684A;R686A (Escherichia coli;Escherichia coli) (UniProt P05055+P0A6X3); experiment: EMSA; settings: EMSA: 0.4 uM RNA, PNPase trimer 1:1 and 3:1 over RNA, 20 mM Tris pH 7.5, 100 mM NaCl, 1 mM MgCl2, 1 mM DTT, 30 C 20 min; native PAA gel with 10% glycerol …
[2] = target: PNPase WT;Hfq (Escherichia coli;Escherichia coli) (UniProt P05055+P0A6X3); experiment: cryo-EM; settings: EMSA: 0.4 uM RNA, PNPase trimer 1:1 and 3:1 over RNA, 20 mM Tris pH 7.5, 100 mM NaCl, 1 mM MgCl2, 1 mM DTT, 30 C 20 min; native PAA gel with 10% glycerol …

Q: With “GCGAUCAGGAAGACCCUCGCGGAGAACCUGAAAGCACGACAUUGCUCACAUUGCUUCCAGUAUUACUUAGCCAGCCGGGUGCUGGCUUUUUUUUU [RyhB]” as the sequence, how does the binding [1] read?
A: no binding

Q: What about the binding [2] of the same sequence?
A: binds

From publication PMC8294330
